Square brackets hold non-standard residues; d marks the D form. Ends that are not written are not given here. Aib = CC(C)(N)C(=O)O
Target: T1, human SR-BI (Homo sapiens, UniProt Q8WTV0)
T1 construct: expressed in transfected cells; host or cells: BHK(SR-BI) cells obtained from the NIH, GeneSwitch System (Invitrogen), induced with 10 nM mifepristone
T1 sequence (Q8WTV0 1-509 isoform Q8WTV0-2): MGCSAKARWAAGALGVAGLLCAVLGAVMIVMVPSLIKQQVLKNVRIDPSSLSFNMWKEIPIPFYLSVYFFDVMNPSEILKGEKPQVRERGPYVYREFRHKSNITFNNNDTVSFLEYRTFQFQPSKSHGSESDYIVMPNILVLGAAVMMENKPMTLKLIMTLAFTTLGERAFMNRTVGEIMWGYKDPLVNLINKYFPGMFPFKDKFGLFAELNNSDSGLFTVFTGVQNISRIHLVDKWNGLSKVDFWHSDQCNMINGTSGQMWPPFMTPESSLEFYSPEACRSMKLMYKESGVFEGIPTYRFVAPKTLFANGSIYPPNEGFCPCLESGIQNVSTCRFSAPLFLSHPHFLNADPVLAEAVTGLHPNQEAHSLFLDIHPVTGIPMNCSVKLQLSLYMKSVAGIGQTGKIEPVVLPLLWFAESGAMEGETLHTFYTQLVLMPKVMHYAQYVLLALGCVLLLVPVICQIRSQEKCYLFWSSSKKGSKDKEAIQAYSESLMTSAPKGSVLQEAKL
Assay: DiI uptake from DiI-labeled PALM by BHK(SR-BI) cells, uninduced or mifepristone-induced (SR-BI selectivity)
Assay type: cell-based
Settings: for Induced Uptake: BHK(SR-BI) cells induced with 10 nM mifepristone; for Induced Uptake / Basal Uptake: DiI-labeled PALM 32 μg peptide/ml or DiI-labeled HDL 19 μg protein/ml, 4 hours, ± SEM (n = 4); for SR-BI Dependent Uptake: Increase over basal uptake; for Basal Uptake: uninduced BHK(SR-BI) cells
Method: The procedure essentially followed that described in Example 5. A 40 μl aliquot of 10 mM or peptide was combined with 56 μl of 20 mM POPC, 24 μl 20 mM SM(egg) and 16 μl 2.5 mM DiI in a small glass vial. The peptide and lipid stock solutions were prepared in 80% TBA/20% water. The DiI stock was prepared in 92% TBA/8% water. The solution was lyophilized, and the resultant cake was rehydrated by addition of 0.2 ml of Dulbeco's phosphate buffered saline. The solution was briefly swirled, water bath sonicated (for approx. 15 sec.) and placed in a 50° C. heating block for 20 minutes.
SR-BI interaction studies are done with BHK(SR-BI) cells obtained from the NIH. The cells were stably transfected with an inducible human SR-BI gene by means of the GeneSwitch™ System (Invitrogen). The cells were plated (96-well plate) (8000 cells/well) in growth medium (Dulbeco's modified Eagle medium containing 10% fetal bovine serum) containing 200 ug/ml each of zeocin and hygromycin. After 24 hours incubation, the growth medium was removed and replaced with 0.2% bovine serum albumin in Dulbeco's modified Eagle medium. The medium of cells to be induced for SR-BI expression also contained 10 nM mifepristone, added from a DMSO stock solution. DMSO alone was added to the medium of uninduced cells. The induction medium was removed after 24 hours incubation and replaced with medium containing DiI-labeled PALM (32 μg peptide/ml) or DiI-labeled HDL (19 μg protein/ml) (Kalen Biomedical, Montgomery Village, Md.). The test media were prepared by diluting an aliquot of Di-I-labeled PALM (Example 6) or the DiI-labeled HDL in 0.2% bovine serum albumin in Dulbeco's modified Eagle medium. The solutions were passed through 0.2 μm pore size, polyethersulfone, sterilization filters before use. The cells were incubated in test media for 4 hours. Next, the cells were washed 3 times with 0.1% albumin in Dulbeco's phosphate buffered saline (with calcium and magnesium). The last wash was replaced with 200 ul/well of t-butanol/water (95%/5%). The covered plate was left to stand at room temperature for 30 min with occasional shaking. The fluorescence in each well was detected at 520 nm excitation and 580 nm emission with a 550 nm cutoff filter on a […] Gemini fluorescence plate reader, the results are shown in Table 6 and FIG. 7.

Row | Substance | SR-BI Dependent Uptake [%] | Induced Uptake | Basal Uptake
1 | DVFQKL{Aib}ELFKELLEKWKQV (DVFQKL[Aib]ELFKELLEKWKQV) [SEQ ID NO: 8, amphiphilic peptide used to form PALM] | 14 | 20 ± 9 (DiI in cells)/(Total DiI added) × 10^−3 | 17 ± 8 (DiI in cells)/(Total DiI added) × 10^−3
2 | DVFQKL{Aib}ELFQNL{Aib}EKWKQV (DVFQKL[Aib]ELFQNL[Aib]EKWKQV) [SEQ ID NO: 10, amphiphilic peptide used to form PALM] | 78 | 16 ± 2 (DiI in cells)/(Total DiI added) × 10^−3 | 9 ± 1 (DiI in cells)/(Total DiI added) × 10^−3
3 | DVFQKL{Aib}ELFQQL{Aib}EKWKQV (DVFQKL[Aib]ELFQQL[Aib]EKWKQV) [SEQ ID NO: 9, amphiphilic peptide used to form PALM] | 72 | 11 ± 2 (DiI in cells)/(Total DiI added) × 10^−3 | 6 ± 1 (DiI in cells)/(Total DiI added) × 10^−3
4 | D{Aib}FQKL{Aib}ELFNQL{Aib}EKWKQV (D[Aib]FQKL[Aib]ELFNQL[Aib]EKWKQV) [SEQ ID NO: 7, amphiphilic peptide used to form PALM] | 137 | 18 ± 2 (DiI in cells)/(Total DiI added) × 10^−3 | 8 ± 1 (DiI in cells)/(Total DiI added) × 10^−3
5 | PVLDLFRELLNELLEALKQKLK [SEQ ID NO: 11, reference compound] | 55 | 5 ± 1 (DiI in cells)/(Total DiI added) × 10^−3 | 3 ± 1 (DiI in cells)/(Total DiI added) × 10^−3

Second part, led by results:

Row | SR-BI Dependent Uptake [%] | Substance | Induced Uptake | Basal Uptake
6 | 35 | DVFQKLVELFNQLLEKWKQV [SEQ ID NO: 2, amphiphilic peptide used to form PALM] | 12 ± 2 (DiI in cells)/(Total DiI added) × 10^−3 | 9 ± 2 (DiI in cells)/(Total DiI added) × 10^−3
7 | 53 | DVFQKL{Aib}ELFNQLLEKWKQV (DVFQKL[Aib]ELFNQLLEKWKQV) [SEQ ID NO: 1, amphiphilic alpha-helical peptide used to form PALM] | 10 ± 1 (DiI in cells)/(Total DiI added) × 10^−3 | 6 ± 1 (DiI in cells)/(Total DiI added) × 10^−3
8 | 82 | DVFQKL{Aib}ELFNQL{Aib}EKFKQV (DVFQKL[Aib]ELFNQL[Aib]EKFKQV) [SEQ ID NO: 6, amphiphilic peptide used to form PALM] | 27 ± 3 (DiI in cells)/(Total DiI added) × 10^−3 | 15 ± 1 (DiI in cells)/(Total DiI added) × 10^−3
9 | 104 | DVFQKL{Aib}ELFNQL{Aib}EKWKQV (DVFQKL[Aib]ELFNQL[Aib]EKWKQV) [SEQ ID NO: 5, amphiphilic peptide used to form PALM] | 16 ± 2 (DiI in cells)/(Total DiI added) × 10^−3 | 8 ± 1 (DiI in cells)/(Total DiI added) × 10^−3
10 | 66 | DV{Aib}QKFLELFNQLLEKWKQV (DV[Aib]QKFLELFNQLLEKWKQV) [SEQ ID NO: 4, amphiphilic peptide used to form PALM] | 10 ± 1 (DiI in cells)/(Total DiI added) × 10^−3 | 6 ± 1 (DiI in cells)/(Total DiI added) × 10^−3
11 | 79 | DV{Aib}QKLFELFNQLLEKWKQV (DV[Aib]QKLFELFNQLLEKWKQV) [SEQ ID NO: 3, amphiphilic peptide used to form PALM] | 11 ± 2 (DiI in cells)/(Total DiI added) × 10^−3 | 6 ± 1 (DiI in cells)/(Total DiI added) × 10^−3
